In data set [1] the target is T1, GST-TIS7 (TPA Induced Sequence 7) (mouse, UniProt P19182 1-449).
T1 sequence: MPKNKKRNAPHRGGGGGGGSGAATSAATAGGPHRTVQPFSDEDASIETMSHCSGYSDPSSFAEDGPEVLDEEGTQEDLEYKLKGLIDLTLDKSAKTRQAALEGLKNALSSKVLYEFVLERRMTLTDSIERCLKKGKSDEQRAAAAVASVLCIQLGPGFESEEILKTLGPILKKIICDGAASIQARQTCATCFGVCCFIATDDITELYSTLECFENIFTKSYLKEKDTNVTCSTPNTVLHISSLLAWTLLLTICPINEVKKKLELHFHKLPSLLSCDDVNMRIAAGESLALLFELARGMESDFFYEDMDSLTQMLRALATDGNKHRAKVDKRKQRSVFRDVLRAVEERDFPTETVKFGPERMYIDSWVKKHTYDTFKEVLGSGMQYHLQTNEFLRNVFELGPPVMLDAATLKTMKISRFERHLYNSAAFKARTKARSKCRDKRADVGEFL
The data set is described as follows: EMSA; blocked by 20-fold excess of unlabelled oligonucleotide; supershifted by TIS7 antibody; EMSA: 1 ug probe, 10 min, 5% native PAGE (50 mM Tris pH 7.5, 0.38 M glycine, 2 mM EDTA; run in TBE), binding buffer not stated; SPR: Biacore X100, SA chip, oligos annealed in 30 mM Na3PO4, 200 mM NaCl, 1 mM DTT pH 7.2, protein dialyzed in 50 mM Tris pH 7.4, 150 mM NaCl; running buffer and temperature not stated. Conditions: protein: recombinant; tags: N-terminal GST; blunt. (In general: In EMSA bound probe runs differently from free probe, usually more slowly.)

Data set [2] concerns the target T1, GST-TIS7 (TPA Induced Sequence 7). The data set is described as follows: SPR; Kd value printed only in Fig. 4d; 10-fold difference in Kd between native and scrambled sequence; EMSA: 1 ug probe, 10 min, 5% native PAGE (50 mM Tris pH 7.5, 0.38 M glycine, 2 mM EDTA; run in TBE), binding buffer not stated; SPR: Biacore X100, SA chip, oligos annealed in 30 mM Na3PO4, 200 mM NaCl, 1 mM DTT pH 7.2, protein dialyzed in 50 mM Tris pH 7.4, 150 mM NaCl; running buffer and temperature not stated. To be noted: protein: recombinant; tags: N-terminal GST; label: 5'-biotin on sense strand; blunt. On the technique in general: In SPR one partner is held on a chip, and binding of the other changes the refractive index at the surface.

B1: ICln promoter minimal essential region (-154/-113), EMSA probe (dsDNA)
DNA 1: TAGAATGTCTCATCTCTATGGTCGACGGCGTTCAGATTCCG
DNA 2: CGGAATCTGAACGCCGTCGACCATAGAGATGAGACATTCTA
As for B1, the binding result in data set [1] is “binds”.

B2: ICln promoter minimal essential region (-154/-113), SPR (dsDNA)
DNA 1: TAGAATGTCTCATCTCTATGGTCGACGGCGTTCAGATTCCG
DNA 2: CGGAATCTGAACGCCGTCGACCATAGAGATGAGACATTCTA
With B2, the binding result in data set [2] was “binds”.

Source of the values: paper PMC5080701, “TIS7 induces transcriptional cascade of methylosome components required for muscle differentiation”.
